Experimental data reported in US20230047413A1 (Janssen / Centocor, published 2023).
Where “and” joins values, the source holds several entries; their conditions need not be identical. Equal values may be shown once.

Experiments:
Peptide-2 [1] = biological target: T1, Peptide-2 (human, phosphothreonine 212, phosphothreonine 217 (tau 2N4R numbering); short chain biotin (SCBiot) and dPEG4 at the N-terminus; amide at the C-terminus); assay: SPR ProteOn, peptide captured, Fab as analyte
T1 construct: also called pT212/pT217-tau peptide (Peptide-2)
Protocol: A subset of HFA-PT3 monoclonal antibody variants, selected based on biophysical characterization and ELISA binding to PHF, were analyzed by Surface Plasmon Resonance (SPR) with a ProteOn XPR36 for binding to the following phosphopeptides: pT212/pT217-tau peptide (Peptide-2, SEQ ID NO: 48) and pT212-tau peptide (Peptide-8, SEQ ID NO: 54). All experiments were performed at 25° C. using PBST, pH 7.4, (Bio-Rad Cat#176-2720) as both running buffer and sample dilution buffer.
Fab/peptide binding. Biotinylated peptide was captured on a neutravidin-coated NLC biosensor chip pre-conditioned with PBST, and Fab was flowed over the surface to measure kinetic parameters. Approximately 5-10 RU of peptide was captured on the chip surface by diluting peptide to 10 ng/mL in PBST and injecting over the flow channels at 30 μL/min for 100 s. Serial dilutions of PT3 Fab (1.1 nM to 90 nM) were injected at 60 μL/min for 3 minutes (association phase), followed by 300 s of buffer only (dissociation phase).
Data were double referenced by subtraction of the interspot response, and the curves generated by the buffer only injection. The chip surface was regenerated with 0.85% phosphoric acid, followed by PBST injection before the next antibody titration injection. Data processing and analysis were performed using instrument software. The data were fit using a simple Langmuir 1:1 binding model.

Peptide-8 = biological target: T2, Peptide-8 (human, phosphothreonine 212 (tau 2N4R numbering); SCBiot and dPEG4 at the N-terminus; amide at the C-terminus); assay: SPR ProteOn, peptide captured, Fab as analyte; n=1
T2 construct: also called pT212-tau peptide (Peptide-8)
Protocol: (§1) The binding affinity of PT3 Fab towards each of the fourteen tau phosphopeptides shown in Table 6 was assessed by surface plasmon resonance (SPR) using a Bio-Rad ProteOn XPR36. Peptides were synthesized by standard chemical methods (New England Peptide) with short-chain biotin and a PEG4 moiety at the N-terminus. Biotinylated peptide was captured on a neutravidin-coated NLC biosensor chip and PT3 Fab was flowed over the surface to measure kinetic parameters.
(§2) All experiments were performed at 25° C. using phosphate buffered saline, pH 7.4, 0.005% Tween 20 (PBST) as both running buffer and sample dilution buffer. Prior to running samples, the NLC chip was conditioned by running PBST over the chip surface for 1 h. Approximately 5-10 RU of peptide was captured on the chip surface by diluting peptide to 10 ng/mL in PBST and injecting over the flow channels at 30 μL/min for 100 s. Serial dilutions of PT3 Fab (1.1-90 nM) were analyzed and, with the exception of Peptide-8, each concentration was measured in duplicate. After capture of peptides, the antibody titration was injected at 60 μL/min for 3 minutes (association phase), followed by 300 s of buffer only (dissociation phase).
(§3) The data were double referenced by subtraction of the interspot response and the curves generated by the buffer-only injection. The chip surface was regenerated using a single injection of 0.85% phosphoric acid at 30 μL/min for 100 s contact time, followed by four injections of running buffer before the next antibody titration injection. The data processing and kinetic analysis were done using the instrument software. The data were analyzed using a simple Langmuir 1:1 binding model.

Peptide-1 [2] = biological target: T3, Peptide-1 (human, phosphothreonine 212, phosphoserine 214, phosphothreonine 217 (tau 2N4R numbering); short chain biotin (SCBiot) and dPEG4 at the N-terminus; amide at the C-terminus); assay: SPR ProteOn, peptide captured, Fab as analyte; range of n=2
T3 construct: also called tau peptide phosphorylated at T212/S214/T217
Protocol: as §1, §2, §3

Peptide-5 = Peptide-5 (human, phosphoserine 210, phosphoserine 214, phosphothreonine 217 (tau 2N4R numbering); SCBiot and dPEG4 at the N-terminus; amide at the C-terminus); assay: as above
Protocol: as §1, §2, §3

Peptide-4 = Peptide-4 (human, phosphoserine 210, phosphothreonine 217 (tau 2N4R numbering); SCBiot and dPEG4 at the N-terminus; amide at the C-terminus); assay: SPR ProteOn, peptide captured, Fab as analyte; Peptide-4, phosphorylated at 210/217
Protocol: as §1, §2
(§4) The data were double referenced by subtraction of the interspot response and the curves generated by the buffer-only injection. […] The data were analyzed using a simple Langmuir 1:1 binding model.

Peptide-7 = Peptide-7 (human, phosphothreonine 212, phosphoserine 214 (tau 2N4R numbering); SCBiot and dPEG4 at the N-terminus; amide at the C-terminus); assay: SPR ProteOn, peptide captured, Fab as analyte; Peptide-7, phosphorylated at 212/214
Protocol: as §1, §2, §4

Peptide-1 [3] = biological target: T3, Peptide-1; assay: SPR ProteOn, peptide captured, Fab as analyte; Peptide-1, phosphorylated at 212/214/217
Protocol: as §1, §2, §4

Peptide-3 = Peptide-3 (human, phosphoserine 214, phosphothreonine 217 (tau 2N4R numbering); SCBiot and dPEG4 at the N-terminus; amide at the C-terminus); assay: SPR ProteOn, peptide captured, Fab as analyte; Peptide-3, phosphorylated at 214/217; n=3
Protocol: as §1, §2, §4

Peptide-2 [4] = biological target: T1, Peptide-2; assay: SPR ProteOn, peptide captured, Fab as analyte; Peptide-2 (pT212/pT217); peptide mapping run of Table 6, n=2
Protocol: as §1, §2, §4

Peptide-6 = Peptide-6 (human, phosphothreonine 217 (tau 2N4R numbering); SCBiot and dPEG4 at the N-terminus; amide at the C-terminus); assay: SPR ProteOn, peptide captured, Fab as analyte; range of n=2; Peptide-6 (pT217 only); lower end of n=2 range
Protocol: as §1, §2, §4

Peptide-1 [5] = biological target: T3, Peptide-1; assay: SPR ProteOn, peptide captured, Fab as analyte; range of n=2; Peptide-1 (pT212/pS214/pT217); lower end of n=2 range
Protocol: as §1, §2, §4

T1 sequence (peptide, as listed by the source): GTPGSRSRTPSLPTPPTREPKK

koff (Peptide-2 [1]): 6.39e-05 s⁻¹
kon (Peptide-2 [1]): 776000 M⁻¹ s⁻¹
Kd (Peptide-8): 23 nM
koff (Peptide-8): 0.00646 s⁻¹
kon (Peptide-8): 281000 M⁻¹ s⁻¹
koff (Peptide-1 [2]): 0.000236 s⁻¹ and 0.000324 s⁻¹
kon (Peptide-1 [2]): 870000 M⁻¹ s⁻¹ and 1.67e+06 M⁻¹ s⁻¹
Kd (Peptide-5): 6.6 to 10.8 nM
Kd (Peptide-4): 6.6 nM
Kd (Peptide-7): 13.5 nM
Kd (Peptide-1 [3]): 0.26 nM
Kd (Peptide-3): 5.57 nM
Kd (Peptide-2 [4]): 0.27 nM
Kd (Peptide-6): 10.9 to 11.9 nM
Kd (Peptide-1 [5]): 0.14 to 0.38 nM
B1: PT3 Fab (B187) (Fab, V domains shown)
VH: EVKLVESGGDLVKPGGSLKLSCAASGFTFSSYAMSWVRQNPEKRLEWVASISKGGNTYYPNSVKGRFTISRDNARNILYLQMSSLRSEDTALYYCARGWGDYGWFAYWGQVTLVTVSA
VL: DIKMTQSPSSMYASLGERVTITCKASQDINRYLNWFQQKPGKSPKTLIYRANRLLDGVPSRFSGSGSGQDYSLTISSLDYEDMGIYYCLQYDEFPLTFGDGTKLELK
notes: Chimeric Fab: mouse variable regions, human IgG1/kappa constant region, 6xHis tag at the C-terminus of the heavy chain; also called mouse parental Fab of PT3
